In patent US9150634B2, “Epitopes of the human PDGF receptor able to bind human auto-antibodies, antibodies and uses thereof” (priority 2010, dated 2015):

Experiments:
normal human fibroblasts [1] = assay: type I collagen gene transcription in normal human fibroblasts (real-time PCR); type: cell-based; settings: time course
Text: (§1) FIG. 5 Characterization of recombinant human monoclonal auto-antibodies (rHumaab). IgG were affinity-purified from serum-free supernatants of CHO cells stably transfected with each of the four rHumaab constructs and used (10 micrograms/ml) in four independent assays. Each result is representative of three experiments performed under the same conditions. (a) Vk13B8, Vk16F4 and Vlambda16F4, but not Vlambda13B8 rHumaab, immunoprecipitated PDGFR alpha from normal human fibroblast extracts. A mouse monoclonal anti-PDGFR alpha antibody was used as positive control. Immunoprecipitated PDGFR alpha was visualized by immunoblotting with rabbit anti-PDGFR alpha antibody-HRP. (b-c) Vk16F4 and Vlambda16F4, but not Vk13B8 and Vlambda13B8 rHumaab, induced (b) ROS production and (c) increased ERK phosphorylation (p-ERK) in normal human fibroblasts after 15 minutes incubation. […] Intracellular ROS production was measured by DCFH-DA fluorescence. […] Type I A1 and A2 collagen gene expression was measured by quantitative real-time PCR in RNA extracted from fibroblasts at baseline and after stimulation with the indicated reagents. […] Mouse collagen gene expression was measured by quantitative real-time PCR in RNA extracted from F alpha and F−/− fibroblasts at baseline and after 1 hour stimulation with Vk16F4 rHumaab or human PDGF-BB. […]

PDGFR alpha [2] = target: T1, PDGFR alpha (Homo sapiens, UniProt P16234); assay: optical biosensor binding to immobilized His-tagged PDGFR alpha; parameters: cDNA encoding aminoacids 1-834 of human PDGFR alpha; made in house
Method: A detailed characterization of rHumaab interaction with human PDGFR alpha was performed on an optical biosensor, using as a molecular bait a homemade truncated conformer of this receptor containing the complete extracellular and transmembrane regions joined to a poly-histidine tail (HIS tag) replacing part of the intracellular domain, and serving both as an anchor to the biosensor surface and as a spacer. Preservation of proper folding of the immobilized receptor into a naïve-like conformation was verified by monitoring the interaction with its natural binding partner (PDGF-BB) and with two mouse monoclonal antibodies specific for conformational PDGFR alpha epitopes (FIG. 6a). Using this approach, both kinetics and equilibrium parameters of the interaction between PDGF-BB, each rHumaab and PDGFR alpha were determined. […] Additionally, the analysis of association and dissociation rate constants for soluble ligands binding to PDGFR alpha, further defined the mechanistic properties of the macromolecular recognition process. […]
cDNA encoding aminoacids 1-834 of human PDGFR alpha was inserted in the pcDNA V5 HIS A vector (Invitrogen), in order to fuse the COOH— terminal of the protein with a 6× histidine tag. […] Presence of a single His-tagged PDGFR alpha product in eluted fractions was evaluated by immunoblotting with specific anti-PDGFR alpha (R&D Biosystems) and anti-histidine (Sigma-Aldrich) monoclonal antibodies. […]
[…] For binding assays, monophasic time courses were always reported upon addition of soluble rHumaab (the validity of the monophasic model in fitting each time course was assessed according to a standard F-test procedure, with the biphasic model being statistically nonsignificant at 95% confidence) (Bevington P R and Robinson D K. McGraw-Hill Book Company, New York. 1992).
Target sequence in this assay (P16234 24-834): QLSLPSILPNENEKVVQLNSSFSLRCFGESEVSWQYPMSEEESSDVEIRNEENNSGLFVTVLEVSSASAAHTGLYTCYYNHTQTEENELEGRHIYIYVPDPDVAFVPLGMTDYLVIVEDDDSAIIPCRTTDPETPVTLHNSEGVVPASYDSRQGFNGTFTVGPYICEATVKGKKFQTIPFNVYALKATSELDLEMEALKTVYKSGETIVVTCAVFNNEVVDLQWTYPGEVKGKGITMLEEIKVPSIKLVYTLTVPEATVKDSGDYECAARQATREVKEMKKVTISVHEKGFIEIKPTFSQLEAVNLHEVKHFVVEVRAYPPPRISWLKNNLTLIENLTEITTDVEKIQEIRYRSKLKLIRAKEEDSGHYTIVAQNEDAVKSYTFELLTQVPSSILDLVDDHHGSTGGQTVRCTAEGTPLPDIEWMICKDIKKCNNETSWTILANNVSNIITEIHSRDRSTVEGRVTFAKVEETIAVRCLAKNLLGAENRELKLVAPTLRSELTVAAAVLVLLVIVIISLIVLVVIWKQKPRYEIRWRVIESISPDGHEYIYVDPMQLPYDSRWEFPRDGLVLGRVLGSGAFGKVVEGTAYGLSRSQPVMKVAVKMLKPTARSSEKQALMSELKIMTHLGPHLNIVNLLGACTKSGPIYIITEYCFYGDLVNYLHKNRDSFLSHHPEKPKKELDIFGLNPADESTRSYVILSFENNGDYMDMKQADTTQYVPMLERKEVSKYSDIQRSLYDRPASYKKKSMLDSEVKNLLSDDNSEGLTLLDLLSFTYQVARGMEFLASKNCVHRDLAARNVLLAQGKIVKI

normal human fibroblasts [3] = assay: ROS production in normal human fibroblasts (DCFH-DA fluorescence); type: cell-based; settings: 10 micrograms/ml, 15 minutes incubation
Text: as §1

PDGFR alpha [4] = target: T1, PDGFR alpha; assay: immunoprecipitation and immunoblotting of PDGFR alpha from human fibroblast extracts; type: binding; parameters: 100 micrograms of total protein from human fibroblast extract; endogenous in cells; host or cells: normal human (skin) fibroblasts, total cell extract; settings: normal human fibroblast extracts; 10 micrograms/ml
Method: Immunoprecipitating antibodies were individually incubated for 4 hours at 4° C. with an aliquot of 100 micrograms of total protein from human fibroblast extract. The reaction mixture was adjusted to a final volume of 500 microliters with assay buffer (PBS, 1% Nonidet P-40, 0.5% sodium deoxycholate, 1 mM PMSF). Rabbit anti-PDGFR alpha antibody and rabbit IgG (Santa Cruz), IgG purified from EBV-transformed B cell culture supernatants and rHumaab were used at 10 micrograms/ml, total IgG purified from serum of SSc patients and healthy subjects at 200 micrograms/ml. Then, 20 microliters agarose-Protein A/G (Santa Cruz) were added to the antibody-cell extract mixture and incubated overnight under rotation at 4° C. After centrifugation and extensive washing, immunoprecipitates were suspended in 20 microliters of loading buffer (150 mM Tris-HCl, pH 6.8/6% SDS/0.3% bromophenol blue/30% glycerol) and heated to 100° C. for 10 minutes prior to immunoblotting with a commercial rabbit anti-PDGFR alpha antibody (Santa Cruz).
Target sequence in this assay (P16234 24-1089): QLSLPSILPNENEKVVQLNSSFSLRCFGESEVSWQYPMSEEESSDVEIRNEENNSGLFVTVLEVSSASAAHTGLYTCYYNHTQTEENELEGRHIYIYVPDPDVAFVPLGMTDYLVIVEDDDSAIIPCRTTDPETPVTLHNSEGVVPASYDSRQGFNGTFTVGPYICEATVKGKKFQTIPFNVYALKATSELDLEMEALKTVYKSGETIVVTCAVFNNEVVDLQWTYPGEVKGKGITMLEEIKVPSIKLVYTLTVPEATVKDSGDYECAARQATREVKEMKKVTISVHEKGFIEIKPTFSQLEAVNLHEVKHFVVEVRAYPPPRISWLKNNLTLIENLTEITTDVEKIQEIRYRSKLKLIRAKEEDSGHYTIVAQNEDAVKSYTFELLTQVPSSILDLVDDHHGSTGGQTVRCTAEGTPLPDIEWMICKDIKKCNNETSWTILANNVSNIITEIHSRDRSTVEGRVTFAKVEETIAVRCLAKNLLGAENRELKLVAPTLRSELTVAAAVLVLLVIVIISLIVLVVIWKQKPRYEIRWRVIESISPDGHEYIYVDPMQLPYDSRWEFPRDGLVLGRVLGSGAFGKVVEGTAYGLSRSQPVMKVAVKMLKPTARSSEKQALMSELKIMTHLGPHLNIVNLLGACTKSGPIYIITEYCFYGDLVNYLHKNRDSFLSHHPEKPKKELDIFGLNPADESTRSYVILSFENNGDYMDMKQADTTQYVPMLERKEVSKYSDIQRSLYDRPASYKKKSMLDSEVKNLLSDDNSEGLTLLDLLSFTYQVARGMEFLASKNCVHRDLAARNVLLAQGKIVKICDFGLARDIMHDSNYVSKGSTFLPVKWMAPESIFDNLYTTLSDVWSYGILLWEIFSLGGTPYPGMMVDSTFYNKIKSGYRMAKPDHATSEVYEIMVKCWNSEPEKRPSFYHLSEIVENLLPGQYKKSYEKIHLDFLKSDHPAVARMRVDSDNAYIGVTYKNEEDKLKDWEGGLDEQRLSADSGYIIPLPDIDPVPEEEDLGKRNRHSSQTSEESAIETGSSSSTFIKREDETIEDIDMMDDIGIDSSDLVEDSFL

normal human fibroblasts [5] = assay: ERK phosphorylation (p-ERK immunoblot) in normal human fibroblasts; type: cell-based; settings: 10 micrograms/ml, 15 minutes incubation
Text: as §1

PDGFR alpha [6] = target: T1, PDGFR alpha; assay: competitive binding on optical biosensor; parameters: cDNA encoding aminoacids 1-834 of human PDGFR alpha; made in house; settings: immobilized His-tagged PDGFR alpha saturated with molar excess of PDGF-BB
Method: To draw a map of the PDGFR alpha epitopes recognized by the rHumaab, competitive binding experiments were performed on the optical biosensor platform, where the surface of immobilized HIS-tagged PDGFR alpha was saturated with PDGF-BB prior to the addition of each rHumaab.
Binding assays were performed on a IAsys plus biosensor. The carboxylate surface was equilibrated with PBS buffer, and activated by addition of an equimolar mixture of N-hydroxysuccinimide and N-ethyl-N-(dimethylaminopropyl) carbodiimide hydrochloride following the standard procedure (Davies, R J et al. Academic Press: San Diego, 1994).
Next, His-tagged PDGFR alpha (200 micrograms/mL) was incubated over the surface for 20 min, and free carboxylic sites on the sensor surface were deactivated by injection of 1M ethanolamine, pH 8.5. Finally, the surface was re-equilibrated with PBS. rHumaab and PDGF-BB were added at different concentrations, and association kinetics were followed up to equilibrium, whereas dissociation steps and surface regeneration were performed by addition of fresh buffer, each time assessing the baseline recovery prior to any new addition of ligand. Kinetic and equilibrium parameters were derived from global fit of raw data both to mono- and bi-exponential models (Cuccioloni M et al. J Lipid Res 2011; 52 (5): 897-907).
Target sequence in this assay (P16234 24-834): as the sequence (P16234 24-834) above

## PDGF-BB: human PDGF-BB, natural binding partner (physiological ligand) of PDGFR alpha [reference compound]
Normal human fibroblasts [1]
  duration of collagen gene stimulation: up to 6 hours
PDGFR alpha [2]
  kass (association rate constant): 3e+07 M⁻¹ s⁻¹

B1: Vlambda16F4: recombinant human monoclonal IgG1, VH PAM paired with Vlambda16F4 VL (SEQ ID No. 7) (antibody, V domains shown)
VH: GLVKPLETLSLTCSVSGGSVSDGSYFWNWIRQPPGKGLEWIGYAYSRGTTNYSPSLKGRITISVDKSKNQISLKLTSVTPADTAVYYCARDSFEIWGQGTMVTV
VL: QSALTQPASVSGSPGQSITISCTGTSSDVGGYNYVSWYQHHPGKAPKLMIYEVSHRPSGVSNRFSGSKSGNTASLTISGLQAEDEADYYCSSYTSSSHVVFGGGTKLTVL
Normal human fibroblasts [3]
  ROS production: induced
PDGFR alpha [4]
  immunoprecipitation of PDGFR alpha: specifically bound
Normal human fibroblasts [5]
  ERK phosphorylation (p-ERK): increased
PDGFR alpha [2]
  kdiss (dissociation rate constant): 0.003 s⁻¹

B2: Vk13B8: recombinant human monoclonal IgG1, VH PAM (SEQ ID No. 3) paired with Vk13B8 VL (SEQ ID No. 4); non-agonistic anti-PDGFR alpha (antibody, listed as Homo sapiens, V domains shown)
VH: B1 VH
VL: DIQMTQSPSSLSASVGDRVTITCRASQGISNYLAWFQQKPGKAPKSLIYAASSLQSGVPSKFSGSGSGTDFTLTISSLQPEDFATYYCQQYNSFPYTFGQGTKLEIK
PDGFR alpha [6]
  binding to PDGFR alpha pre-saturated with PDGF-BB: bound
PDGFR alpha [4]
  immunoprecipitation of PDGFR alpha: specifically bound
PDGFR alpha [2]
  kdiss (dissociation rate constant): 0.035 s⁻¹
